We go through 1 protein from article PMC3320582, “Group A Streptococcus Secreted Esterase Hydrolyzes Platelet-Activating Factor to Impede Neutrophil Recruitment and Facilitate Innate Immune Evasion” (PLoS Pathogens, 2012).

Substrate in the series: [H][C@@](COCCCCCCCCCCCCCCCC)(COP(=O)([O-])OCC[N+](C)(C)C)SC(C)=O
Kind of series: purified protein. It is filed as biochemical, Homo sapiens. Particulars: PAF acetylhydrolase assay kit; measured as comparison to SsE.

B1: human recombinant plasma PAF acetylhydrolase (Homo sapiens) (protein)
chain: FDWQYINPVAHMKSSAWVNKIQVLMAAASFGQTKIPRGNGPYSVGCTDLMFDHTNKGTFLRLYYPSQDNDRLDTLWIPNKEYFWGLSKFLGTHWLMGNILRLLFGSMTTPANWNSPLRPGEKYPLVVFSHGLGAFRTLYSAIGIDLASHGFIVAAVEHRDRSASATYYFKDQSAAEIGDKSWLYLRTLKQEEETHIRNEQVRQRAKECSQALSLILDIDHGKPVKNALDLKFDMEQLKDSIDREKIAVIGHSFGGATVIQTLSEDQRFRCGIALDAWMFPLGDEVYSRIPQPLFFINSEYFQYPANIIKMKKCYSPDKERKMITIRGSVHQNFADFTFATGKIIGHMLKLKGDIDSNVAIDLSNKASLAFLQKHLGLHKDFDQWDCLIEGDDENLIPGTNINTTNQHIMLQNSSGIEKYN
notes: commercial recombinant protein (Cayman Chemical)
By Km is commonly meant the substrate concentration at which the rate is half of its maximum. Usually kcat stands for the maximal rate divided by the concentration of active sites. With B1, the Km is 8.0 µM and the catalytic constant (kcat) came to 15.4 s⁻¹.
